Assay results reported in the domain aggregation screens of Martell et al. (2025).

Assay: soluble fraction after stress (log2 fold change); higher = more stays soluble; pooled small domains, quantitative proteomics
Conditions: stress: 50 degC
Procedure, shortened: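 The stress applied to every library was 50°C. These custom libraries of small protein domains were pooled and measured at high throughput with quantitative proteomics as the read-out. Aggregation propensity is expressed as the base-two logarithm of the fold change in how much of each protein remains soluble. The higher the value, the more of that protein stays in solution.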

HMNPLLSAYLAEVERGLQGLTAGRRRLVLRELEAHLLDEAEARGLLTEEDMRALLMEKEPPERLAQEIAQ
soluble fraction (log2): -0.0936

HMNPMLEPAGEIRLSDGVLLRWQSERLPGDDTVRGPGSLYELGLYRVKVRVSAPQQGVRESSVELAGWRQV
soluble fraction (log2): -0.0771

HMNPMRYLVVPSQETETWKEYLVSKEWLERKYRIETEGDNRAIPLSNLFPKIVPIELSNLEIIEKEAFS
soluble fraction (log2): -0.24

HMNPNEVQIPDLVNKTEDEAEQILKDLKLKLVVKSEEYNENIEKGKIISQDPPYQENYTIKEHSEISIVIS
soluble fraction (log2): 0.42

HMNPSRPASKEELLGLFEHLERALDAVTFFRPAEKKPVVVQTLRAMLTKASFTEQDIRTMRGVIAALEN
soluble fraction (log2): -1.5

HMNPYQDSILLWKSFDTPLTNEDFMGLSKEELRIARNEIYAAYGRIFTSQDLIDYFNSKPWYQGTTPA
soluble fraction (log2): -0.202

HMNQDQDLSRIKGIGPEMVDRLHAQGVETLEQIAAMQMEQLKKLDQQISGNGKAVREQWAEQAKQLLTT
soluble fraction (log2): 0.0638

HMNQEFRMPNAIKGVELSEENKQQLTQGEKVFLEGMTSAKGSLFDAYVYIDQEKKTLAFDFPEK
soluble fraction (log2): 0.184

HMNQKTQMTKQILAESLKKLMLHHSFEKITIKDITDAAGFIRPTFYNHFKDKYDLVEWIFTEEI
soluble fraction (log2): -0.364

HMNQKVRQLLSQAQAEMERKNYKQAIKLLDQALAIEPHSGELHFMKGYAWMSMGEFEKALESLYEARNYA
soluble fraction (log2): -0.399

HMNQPRQRKVIFELIDERNALERVLMHFAHLEKQVEKIDERKYQVTLYYDKEDETEILIRVLSFG
soluble fraction (log2): -1.15

HMNQTEKSKITHNELLKAAHSLFIEQGFNHTTITDIVTRAGYSTGIFYKHYKTKTDILVELWTNYIE
soluble fraction (log2): -2.31

HMNQWQLLSEDGAILGTRVLYHPHETEQPFTRSLSGVKIPAHVQSVTIRAGDLVHGFGGREIQMQLPPIV
soluble fraction (log2): -0.0987

HMNREENIQIGRDLLERELRKQGMDLQENLRQEVLLDGAKKLGFNNTDDLLAAIGDLKVTPAMFIGKIA
soluble fraction (log2): 0.0695

HMNREMLVHAIGQLKEKYASALELKYWHGFTEREIAAFLNISEKAANSRLVRGRVMLRKLLE
soluble fraction (log2): 0.131

HMNREYELTAEESGQRLDKYLAGEMTDLSRSRIKELVQAGEILVNGKKSKVSYKVQKDDLIQVIVLPLE
soluble fraction (log2): -0.285

HMNRITEFVVPEGTKKIRADKLLAESFPDHSRSDFHRAFDASLVRLEGQPISKNRKISQGDVLVFEMPEI
soluble fraction (log2): 0.281

HMNRPQDLGEPYDGQFREHPEAWAFYAAQSPSYRRSASWWVLGAKQEVTRQRRLAALIDASAQGTRIPALT
soluble fraction (log2): -1.09

HMNRREFQFSEGSSNKFWSIELRDQSFIVHYGKIGTNGQAQEKTFATADAAKKEHDKLIAEKTKKGYVEVQ
soluble fraction (log2): -0.392

HMNRTKYYDFEGHPAKVVRLTLPVYLNKIGDEVVVYDSQKFAREASPISESQYNRMVAEIFQP
soluble fraction (log2): -0.354

HMNSEAVQNVIDKISALPDDITAKAKSQIEEARAAYEALSDSEKARVTNYSTLVAAEKKLASVVKD
soluble fraction (log2): 0.325

HMNSEERVLDTASKWLVKLDEGLDESEAQVLKVWLATPLHRDTFLEMVALWDKMSVLNELADIV
soluble fraction (log2): -1.78

HMNSISDSELKALIKNNYLKFLKRIASDEEIEYHFNQIKNKTILLDELDSIFQNSQEYKDLVEHNNKIQN
soluble fraction (log2): -0.0724

HMNSKQELAYQTIRARIVDGSYGPGYRIVIDEVARELGVSPIPVREAVRRLEAEGLITYTRHAGARVVA
soluble fraction (log2): -0.184

HMNSLQLGSRGPTVSALQAKLNTMLVPSPRLVADGSFGPKTAQAVKAFQQMKRLVADGVVGPKTAAALGLS
soluble fraction (log2): -0.00877

HMNSLQNNLKQARTRVGLTQGVLASQAGISRQAYSTLESGSANPSTEVALRLAQALQERVELLFYLPER
soluble fraction (log2): -0.705

HMNSNKFANAAAVAVAEKPADSYNPLFIYGPSGVGKTHLLYAIANEIHKHHPDYNIVYIKGDQFTNELIN
soluble fraction (log2): -0.0439

HMNSNLSLTSYEEKIFFLLEKEKNLDELILESSFKAGEILSILMDLEIKHAIVSIPGGKYRRK
soluble fraction (log2): -2.84

HMNSNQESFENWLSANSWYNKDRAMRVFADSLGQELRNSGVSFEKALTQISAEVRKEFSHKFQ
soluble fraction (log2): -0.163

HMNSNSLSFSKFMQEVEAGRVIEVQIKGNDIQGELSDGSKFKTYSPNYPNLVDKLSENKVSIVATPL
soluble fraction (log2): 0.038

HMNSNTIIFSQFLSEVDNGRVTQVQIQGNNIKGTLSNGKDFITYAPNDPNLIEKLTSKGVSISASPID
soluble fraction (log2): 0.0608

HMNSNTIIINDIMTKIGKEVKNFTEIYSIILKALAEHGEEYVRTNTEYALKNFTGNFDIFLEQLLLK
soluble fraction (log2): -0.201

HMNSRAERKEAAKEAIRNLLREGMTFEELTGPWLEKRFAEEPFNRGARSWQMLISEIKEEPEFQHL
soluble fraction (log2): 0.00166

HMNSRQPEEEALFELLAKNPYSDEQLEEIRIAIGSGISYKDVLVIADIKNTAKQMKKLRLKFTKDTG
soluble fraction (log2): -0.122

HMNSTEQQTERFLATLTSLGGNAGNQRLQEALGWQGSTYQRIKQHLLDEGRIRTGRGRGGSVALSEATAT
soluble fraction (log2): 0.143

HMNSTGVYQRPDGFWEYRFTLSINGKKLPRRKSTDLMGNKLKTKREAIKAREEAIIALRTEKTI
soluble fraction (log2): -0.994

HMNSTVKVPNVVGMSVPQAKALLEQNHLLVQGIREVSTDKAPAGIVINQLPYSDAEVKEERHIYLTVSKGK
soluble fraction (log2): ≥ 0.62
